Kd and inhibition data for 9 molecules are collected here from paper PMC2582960, “A Structural Model of the Staphylococcus aureus ClfA–Fibrinogen Interaction Opens New Avenues for the Design of Anti-Staphylococcal Therapeutics” (PLoS Pathogens, 2008).

In test [1] the target is GST-Fg γ^1–17 (residues 395–411 of the Fg γ-chain fused to a GST protein) (human) (UniProt P02679). Kind of test: ELISA; human Fg or GST fusion protein coated (1 µg/well); His-tagged ClfA added in increasing concentrations in HBS (10 mM HEPES, 100 mM NaCl, 3 mM EDTA, pH 7.4), 25°C, 1 h; bound ClfA detected with anti-His antibodies; apparent Kd. A general note: An ELISA detects its analyte on a solid surface through an enzyme-linked reagent.

The target is the same in test [2]. Described as above. The source holds these as a separate data set.
The target of test [3] is human fibrinogen (Fg), full length (human) (UniProt P02671). Described as above.
Chain of human fibrinogen (Fg), full length (human) (P02671 other isoform, or with tags, fused parts or gaps, chain 1 of 3): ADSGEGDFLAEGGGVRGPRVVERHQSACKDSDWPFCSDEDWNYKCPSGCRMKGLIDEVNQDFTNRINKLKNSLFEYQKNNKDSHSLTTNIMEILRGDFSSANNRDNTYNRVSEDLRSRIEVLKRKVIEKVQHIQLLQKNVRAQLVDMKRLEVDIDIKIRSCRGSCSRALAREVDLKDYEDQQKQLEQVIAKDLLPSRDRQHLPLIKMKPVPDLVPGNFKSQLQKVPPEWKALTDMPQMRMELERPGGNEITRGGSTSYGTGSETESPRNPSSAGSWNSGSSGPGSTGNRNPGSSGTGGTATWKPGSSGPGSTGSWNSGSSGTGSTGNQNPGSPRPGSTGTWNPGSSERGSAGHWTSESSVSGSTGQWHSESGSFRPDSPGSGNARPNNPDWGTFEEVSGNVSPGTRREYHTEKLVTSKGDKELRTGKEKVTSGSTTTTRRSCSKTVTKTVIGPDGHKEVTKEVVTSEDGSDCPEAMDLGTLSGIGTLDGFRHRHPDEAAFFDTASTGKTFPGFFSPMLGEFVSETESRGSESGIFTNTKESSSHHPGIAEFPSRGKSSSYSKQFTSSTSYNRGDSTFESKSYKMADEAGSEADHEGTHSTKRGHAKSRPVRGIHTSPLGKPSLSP
Chain of human fibrinogen (Fg), full length (human) (P02675 31-491, chain 2 of 3, further chain): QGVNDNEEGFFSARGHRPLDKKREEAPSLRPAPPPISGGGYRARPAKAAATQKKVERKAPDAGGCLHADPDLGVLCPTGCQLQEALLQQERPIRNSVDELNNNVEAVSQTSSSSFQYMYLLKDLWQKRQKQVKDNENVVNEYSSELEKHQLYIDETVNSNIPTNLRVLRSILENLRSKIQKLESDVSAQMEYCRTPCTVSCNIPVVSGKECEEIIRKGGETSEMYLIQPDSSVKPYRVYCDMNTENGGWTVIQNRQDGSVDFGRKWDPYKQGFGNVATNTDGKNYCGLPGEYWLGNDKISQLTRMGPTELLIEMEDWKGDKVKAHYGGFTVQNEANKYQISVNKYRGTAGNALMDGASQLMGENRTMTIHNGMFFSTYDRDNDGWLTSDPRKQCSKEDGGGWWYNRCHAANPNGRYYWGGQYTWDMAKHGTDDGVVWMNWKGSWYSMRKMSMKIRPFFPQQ
Chain of human fibrinogen (Fg), full length (human) (P02679 other isoform, or with tags, fused parts or gaps, chain 3 of 3, further chain): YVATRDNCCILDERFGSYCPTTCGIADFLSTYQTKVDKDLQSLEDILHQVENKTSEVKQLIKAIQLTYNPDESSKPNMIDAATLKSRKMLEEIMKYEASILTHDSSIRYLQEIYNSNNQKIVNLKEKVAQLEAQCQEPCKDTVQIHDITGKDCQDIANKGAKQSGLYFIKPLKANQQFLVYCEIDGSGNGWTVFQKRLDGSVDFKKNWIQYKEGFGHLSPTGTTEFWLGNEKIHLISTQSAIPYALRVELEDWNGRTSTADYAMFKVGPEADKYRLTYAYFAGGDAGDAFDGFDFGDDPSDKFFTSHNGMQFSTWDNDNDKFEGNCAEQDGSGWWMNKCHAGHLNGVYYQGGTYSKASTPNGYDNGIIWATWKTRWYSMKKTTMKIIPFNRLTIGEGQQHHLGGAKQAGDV
The target of test [4] is ClfA_(229–545) (clumping factor A, N2N3 domains) (Staphylococcus aureus strain Newman) (UniProt Q53653). As to the kind of experiment: ITC. (In general: Isothermal titration calorimetry measures the heat released or taken up as one component is titrated into another.)
Test [5] has as its target T1, ClfA229–545 (Staphylococcus aureus, UniProt Q53653).
T1 sequence (Q53653 229-545): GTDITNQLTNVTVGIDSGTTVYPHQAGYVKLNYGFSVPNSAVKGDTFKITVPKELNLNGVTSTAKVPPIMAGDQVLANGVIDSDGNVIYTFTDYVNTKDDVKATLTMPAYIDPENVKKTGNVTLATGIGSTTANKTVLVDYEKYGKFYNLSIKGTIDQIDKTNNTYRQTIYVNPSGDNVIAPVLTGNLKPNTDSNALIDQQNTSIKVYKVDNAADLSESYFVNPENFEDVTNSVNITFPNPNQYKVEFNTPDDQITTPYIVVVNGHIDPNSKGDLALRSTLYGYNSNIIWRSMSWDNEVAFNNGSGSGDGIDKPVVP
Kind of test: Isothermal titration calorimetry of ClfA229–545 with soluble Fg peptides. On the set-up: a smaller ClfA construct (229–545) predicted to be composed only of the N2 N3 domains; His tag (pQE-30 vector) (N); made in house; host or cells: Escherichia coli XL-1 Blue. The note with it: ITC, 30 µM ClfA in cell, 500–600 µM peptide in syringe, HBS pH 7.4, 30°C, single binding site model; read-out: Kd of peptide binding to ClfA229–545 in solution (ITC). The protocol: The interaction between ClfA proteins and soluble Fg peptides was analyzed by Isothermal titration calorimetry (ITC) using a VP-ITC microcalorimeter (MicroCal). The cell contained 30 µM ClfA and the syringe contained 500–600 µM peptide in HBS buffer (10 mM HEPES, 150 mM NaCl, pH 7.4). All samples were degassed for 5 min. The titration was performed at 30°C using a preliminary injection of 5 µl followed by 30 injections of 10 µl with an injection speed of 0.5 µl/sec. The stirring speed was 300 rpm. Data were fitted to a single binding site model and analyzed using Origin version 5 (MicroCal) software.

The target in test [6] is T1, ClfA229–545. As to the kind of experiment: Solid-phase inhibition assay: Fg γ peptides inhibit ClfA binding to immobilized GST-Fg γ^1–17. Conditions: read-out: inhibition of ClfA binding to immobilized GST-Fg γ^1–17. On the set-up: a smaller ClfA construct (229–545) predicted to be composed only of the N2 N3 domains; His tag (pQE-30 vector) (N); made in house; host or cells: Escherichia coli XL-1 Blue.
Procedure: To identify specific residues in Fg that are important for binding to ClfA229–545, a panel of peptides (Fig. 1A) based on the Fg γ-chain sequence 395–411 (referred to as γ^1–17) were synthesized in which each position was sequentially substituted with an alanine residue (alanines 11 and 14 were changed to serines). These peptides were tested as inhibitors in solid-phase binding assays, using a peptide concentration giving about 50% inhibition by the wild-type peptide.
(§1) ClfA229–545 (100 nM) was pre-incubated with wild-type Fg γ^1–17 peptide (WT γ^1–17) or the P1 (G1A) to P17 (V17A) mutant peptide (50 µM) for 1 hr.
Immulon 4HBX Microtiter plates (Thermo) were coated with human Fg (1 µg/well) in HBS (10 mM HEPES, 100 mM NaCl, 3 mM EDTA, pH 7.4) over-night at 4°C. The wells were washed with HBS containing 0.05% (w/v) Tween-20 (HBST) and blocked with 5% (w/v) BSA in HBS for 1 h at 25°C. […] After incubation, the plates were washed 3 times with HBST. Anti-His antibodies (GE Healthcare) were added (1∶3000 in HBS) and the plates were incubated at 25°C for 1 h. […] The wells were washed 3 times with HBST and AP-conjugated polyclonal antibodies were detected by addition of p-nitrophenyl phosphate (Sigma) in 1 M diethanolamine (0.5 mM MgCl2, pH 9.8) and incubated at 25°C for 30–60 min. The plates were read at 405 nm in a ELISA plate reader (Thermomax, Molecular Devices). […]

Test [7] addresses T1, ClfA229–545. The note with it: read-out: Kd of ClfA229–545 binding to immobilized GST fusion protein; solid-phase assay, 1 µg GST fusion per well, increasing rClfA229–545, anti-His detection (Fig. 1C).
Procedure: as §1
Immulon 4HBX Microtiter plates (Thermo) were coated with human Fg (1 µg/well) in HBS (10 mM HEPES, 100 mM NaCl, 3 mM EDTA, pH 7.4) over-night at 4°C. The wells were washed with HBS containing 0.05% (w/v) Tween-20 (HBST) and blocked with 5% (w/v) BSA in HBS for 1 h at 25°C. […] After incubation, the plates were washed 3 times with HBST. Anti-His antibodies (GE Healthcare) were added (1∶3000 in HBS) and the plates were incubated at 25°C for 1 h. The wells were subsequently washed 3 times with HBST and incubated with goat anti-mouse-AP secondary antibodies (diluted 1∶3000 in HBS; Bio-Rad) at 25°C for 1 h. The wells were washed 3 times with HBST and AP-conjugated polyclonal antibodies were detected by addition of p-nitrophenyl phosphate (Sigma) in 1 M diethanolamine (0.5 mM MgCl2, pH 9.8) and incubated at 25°C for 30–60 min. The plates were read at 405 nm in a ELISA plate reader (Thermomax, Molecular Devices). For the inhibition assays, recombinant ClfA229–545 was pre-incubated with Fg γ peptides in HBS for 1 h at 37°C.
For test [8], the target named is T2, ClfA_(229–545) (clumping factor A, N2N3 domains) (Staphylococcus aureus strain Newman, UniProt Q53653 229-545).
T2 chain: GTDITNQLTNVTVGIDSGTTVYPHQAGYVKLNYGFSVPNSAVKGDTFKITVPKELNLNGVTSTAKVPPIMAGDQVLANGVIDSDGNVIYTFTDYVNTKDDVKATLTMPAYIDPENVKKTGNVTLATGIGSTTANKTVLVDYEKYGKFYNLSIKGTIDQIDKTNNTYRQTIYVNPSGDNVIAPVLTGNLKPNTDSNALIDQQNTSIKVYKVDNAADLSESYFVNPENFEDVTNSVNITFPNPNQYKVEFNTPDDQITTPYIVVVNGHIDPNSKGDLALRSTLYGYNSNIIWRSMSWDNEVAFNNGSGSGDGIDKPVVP
Kind of test: ITC.

Read-outs that look alike come from different tables or passages of the source. Where no end group is shown, it is not given here.

“ClfA_(229–545) (clumping factor A, N2N3 domains) (from UniProt Q53653 229-545) (domain or fragment)”: the Kd in test [1] was 0.222 µM; in test [2], 0.657 µM.

On to “ClfA_((229–545)D327C/K541C), stable closed conformation (from UniProt Q53653 229-545) (domain or fragment)”, for which the Kd in test [1] was 0.02 µM; in test [3] it was 0.034 µM.

In the case of “Fg γ^1–17 peptide, wild type (Fg γ-chain 395–411) (from UniProt P02679-2 421-437)”, in test [4], the Kd is 5.8 µM.

Consider GEGQQHHLGGAKQAGAV [γ^1–17 D16A], for which, at ClfA229–545 [5], the Kd was 3 µM.

For GEGQQHHLGGAKQAGDV [WT γ^1–17], the Kd at ClfA229–545 [5] is 5.8 µM. In addition, the inhibition at 50 µM at ClfA229–545 [6] was approximately 50%.

Turning to “GST-Fg γ^1–17: recombinant form of residues 395–411 of the Fg γ-chain fused to a GST protein (GEGQQHHLGGAKQAGDV; also: fused to GST, end not given here)”, in the test with ClfA229–545 [7], the Kd stood at 0.657 µM.

B1: Fg γ^1–17 _(D16A) peptide truncated by 2 amino acids at the N-terminus (peptide)
chain: GQQHHLGGAKQAGAV
Consider B1, for which the Kd in test [8] was found to be 8.8 µM.

B2: Fg γ^1–17 _(D16A) peptide truncated by 6 amino acids at the N-terminus (peptide)
chain: HLGGAKQAGAV
Regarding B2, the Kd in test [8] amounted to 22.5 µM.

B3: Fg γ^5–17 _(D16A) peptide (13 residues) (peptide)
chain: QHHLGGAKQAGAV
The molecule B3 came in with a Kd in test [8] of 10.5 µM.

The inhibition is the share of the control response that was lost under treatment.
